Experimental data taken from patent US20110117017A1, “PEPTIDES WITH PROPERTIES OF AN […] FOR THE ALPHA 1A […] RECEPTOR AND USES THEREOF” (priority 2006, published 2011).
Where two headings read alike, the source gives them in different places.

Legend:
[1] = molecular target: alpha1a adrenergic receptor (expressed in Pichia pastoris, membranes)
[2] = molecular target: alpha1d adrenergic receptor (expressed in Pichia pastoris, membranes)
[3] = molecular target: alpha2a adrenergic receptor (expressed in Pichia pastoris, membranes)
Chain of alpha2a adrenergic receptor (expressed in Pichia pastoris, membranes) (P08913 whole entry): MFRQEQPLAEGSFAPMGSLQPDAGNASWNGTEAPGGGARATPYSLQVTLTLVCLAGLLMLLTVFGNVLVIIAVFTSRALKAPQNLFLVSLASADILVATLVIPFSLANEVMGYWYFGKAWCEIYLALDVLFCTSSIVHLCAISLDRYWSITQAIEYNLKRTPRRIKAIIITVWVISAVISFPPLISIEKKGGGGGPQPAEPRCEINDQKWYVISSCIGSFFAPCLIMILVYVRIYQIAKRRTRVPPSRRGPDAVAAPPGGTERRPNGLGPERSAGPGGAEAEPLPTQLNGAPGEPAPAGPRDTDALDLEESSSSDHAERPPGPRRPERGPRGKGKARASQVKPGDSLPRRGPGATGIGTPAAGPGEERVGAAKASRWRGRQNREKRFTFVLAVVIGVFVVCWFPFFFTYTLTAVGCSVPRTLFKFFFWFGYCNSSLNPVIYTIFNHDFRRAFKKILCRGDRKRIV

[4] = molecular target: beta1 adrenergic receptor (expressed in Pichia pastoris, membranes)
Chain of beta1 adrenergic receptor (expressed in Pichia pastoris, membranes) (P08588 whole entry): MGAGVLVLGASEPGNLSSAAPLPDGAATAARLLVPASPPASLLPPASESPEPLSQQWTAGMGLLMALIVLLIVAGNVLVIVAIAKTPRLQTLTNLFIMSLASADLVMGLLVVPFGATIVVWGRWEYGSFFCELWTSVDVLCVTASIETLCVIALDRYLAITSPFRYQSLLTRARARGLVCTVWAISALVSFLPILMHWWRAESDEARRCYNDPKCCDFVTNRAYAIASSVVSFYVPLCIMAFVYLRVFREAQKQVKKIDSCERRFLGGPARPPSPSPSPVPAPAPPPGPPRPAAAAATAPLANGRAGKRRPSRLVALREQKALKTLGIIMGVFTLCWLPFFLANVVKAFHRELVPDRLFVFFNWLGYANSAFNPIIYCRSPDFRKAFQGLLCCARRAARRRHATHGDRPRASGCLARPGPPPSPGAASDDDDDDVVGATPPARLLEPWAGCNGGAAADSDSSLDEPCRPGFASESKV

[5] = molecular target: alpha1a adrenergic receptor (expressed in Pichia pastoris, membranes); remark: listed apart in the source
[6] = molecular target: alpha1a adrenergic receptor (expressed in Pichia pastoris, membranes); remark: listed apart in the source

Chain of alpha1a adrenergic receptor (expressed in Pichia pastoris, membranes) (P35348 whole entry): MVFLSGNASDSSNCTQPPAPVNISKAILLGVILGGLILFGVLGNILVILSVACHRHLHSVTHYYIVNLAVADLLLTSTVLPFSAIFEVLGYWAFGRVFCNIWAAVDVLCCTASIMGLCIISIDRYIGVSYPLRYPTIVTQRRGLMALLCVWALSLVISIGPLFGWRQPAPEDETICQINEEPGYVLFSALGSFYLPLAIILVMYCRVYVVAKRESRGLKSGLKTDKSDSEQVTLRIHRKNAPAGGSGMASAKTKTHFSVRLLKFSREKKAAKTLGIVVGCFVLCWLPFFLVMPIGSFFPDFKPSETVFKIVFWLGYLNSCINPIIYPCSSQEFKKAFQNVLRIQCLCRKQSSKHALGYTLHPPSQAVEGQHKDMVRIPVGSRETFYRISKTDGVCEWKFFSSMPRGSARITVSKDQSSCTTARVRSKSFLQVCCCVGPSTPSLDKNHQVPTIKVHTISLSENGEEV
Chain of alpha1d adrenergic receptor (expressed in Pichia pastoris, membranes) (P25100 whole entry): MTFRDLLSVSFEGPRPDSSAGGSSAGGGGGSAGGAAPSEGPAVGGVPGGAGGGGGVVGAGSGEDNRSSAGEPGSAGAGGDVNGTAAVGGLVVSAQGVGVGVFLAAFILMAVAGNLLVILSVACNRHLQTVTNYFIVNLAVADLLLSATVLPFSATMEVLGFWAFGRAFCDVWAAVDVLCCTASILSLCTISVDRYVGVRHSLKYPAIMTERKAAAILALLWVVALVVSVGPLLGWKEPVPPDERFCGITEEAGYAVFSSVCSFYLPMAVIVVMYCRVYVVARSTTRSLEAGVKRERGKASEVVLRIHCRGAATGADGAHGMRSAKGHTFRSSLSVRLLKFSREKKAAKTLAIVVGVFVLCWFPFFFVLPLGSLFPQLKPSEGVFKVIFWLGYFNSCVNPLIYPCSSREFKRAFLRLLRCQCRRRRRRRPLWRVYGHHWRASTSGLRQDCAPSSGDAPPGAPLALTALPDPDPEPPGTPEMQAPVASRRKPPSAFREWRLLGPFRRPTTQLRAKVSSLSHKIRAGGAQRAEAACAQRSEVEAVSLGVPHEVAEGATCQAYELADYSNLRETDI

Substance | IC50 [1] | IC50 [2] | IC50 [3] | IC50 [4] | IC50 [5] | Kd [6]
AdTx1 peptide | 0.5 nM | 9900 nM | > 50000 nM | > 50000 nM | 1.8 nM | –
radiolabeled AdTx1 peptide (125I-AdTx1) | – | – | – | – | – | 0.8 nM
